Substitutions are numbered along the chain they refer to. Names and notes keep the numbering of the source.
B1: C33B61 (antibody, V domains shown)
VH: QLQLQESGPGLVKPSETLSLTCTVSGGSIRSTNYYWGWIRQPPGKGLEWIGTIYYSGNTYYNPSLKSRVTISVDTSKNQFSLKLSSVTAADTAVYYCARLADVVVVPAARYFDYWGQGILVTVSS
VL: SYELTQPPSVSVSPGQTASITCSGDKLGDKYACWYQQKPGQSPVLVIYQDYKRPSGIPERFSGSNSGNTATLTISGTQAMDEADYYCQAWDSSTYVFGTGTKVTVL
notes: huIgG1 F405L; also called C33F66; C33H48/C33L58
B2: C33B62 (antibody, IgG1, V domains shown)
VH: B1 VH with T32S, N33G, Y34F, G44R, Y96F, Y114N, I119T
VL: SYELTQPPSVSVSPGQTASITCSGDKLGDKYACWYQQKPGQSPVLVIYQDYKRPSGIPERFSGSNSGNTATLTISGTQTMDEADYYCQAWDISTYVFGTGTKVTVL
notes: huIgG1 F405L; also called C33F67; C33H49/C33L59
B3: C33B123 (antibody, IgG1, V domains shown)
VH: B1 VH with R30S, T32R, N33S, Y34H, K45V, T52S, S56T, N58S, V103I, I119T
VL: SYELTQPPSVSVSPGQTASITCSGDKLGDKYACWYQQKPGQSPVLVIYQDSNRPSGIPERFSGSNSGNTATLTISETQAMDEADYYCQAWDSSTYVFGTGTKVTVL
notes: huIgG1 F405L; also called C33F128; C33H91/C33L44
B4: C33B48 (antibody, IgG1, V domains shown)
VH: QVQLVQSGSELRKPGASVKVSCKASGYTFTNYAMNWVRQAPGQGLEWMGWINTNTGNPTYAQGFTGRFVFSLDTSVSSAYLQISSLKAEDTAMYYCATDRDRGTDYWGQGTLVTVSS
VL: QSALTQPASVSGSPGQSITISCTGTSSDVGDYNYVSWYQQHPGKVPKLMIYDVSNRPSGVSNRFSGSMSGNTASLTISGLQAEDEADYYCSSYSSSSALEVFGGGTKLTVL
notes: huIgG1 F405L; also called C33F53; C33H80/C33L73
B5: C33B46 (antibody, IgG1, V domains shown)
VH: B4 VH with R12K, T30S, N31T, S78T, M93V, T98R
VL: B4 VL with Y32D, V45A, M68K, A82S, S97T, A98T
notes: huIgG1 F405L; also called C33F51; C33H108/C33L74
B6: C33B66 (antibody, IgG1, V domains shown)
VH: QVQLQESGPGLVKPSGTLSLTCAVSGGSISSSNWWSWVRQPPGRGLEWIGEIYHSGNTNNSPSLKSRVTISADKSKNQFSLKLSSVTAADTAVYFCARIIAVARYFDSWGQGTLVTVSS
VL: SYVLTQPPSVSVAPGQTARITCGGNNIGIKSVHWYQQKPGQAPVLVVYDDSDRPPGIPERFSGSNSGNTATLTITRVEAGDEADYYCQVWDSSSDHVVFGGGTKLTVL
notes: huIgG1 F405L; also called C33F71; C33H55/C33L42
B7: C33B101 (antibody, V domains shown)
VH: QLQLQESGPGLVKPSETLSLTCTVSGGSISSSSYYWGWIRQPPGKGLDWIGSINYSGSTYYNPSLKSRVTISVDTSKIQFSLKLRSVTAADTAVYYCARLDGYESPFDYWGQGTLVTVSS
VL: DIQMTQSPSSVSASVGDRVTITCRASQGISSWLAWYQQKPGKAPKLLIYAASSLQSGVPSRFSGSGSGTDFTLTISSLQPEDFATYYCQQANSFPFTFGPGTKVDIK
notes: huIgG1 F405L; 260 is used; also called C33F106; C33H69/C4LL152
B8: C33B122 (antibody, IgG1, V domains shown)
VH: QLQLQESGPGLVKPSETLSLTCTVSGGSIRSSSYYWGWIRQPPGKGPEWIGSIYSSGNTYYNPSLKSRVTISVDTSKNQFSLKLISMTAADTAVFYCARLAATIVVPAARYFDCWGQGTLVTVSS
VL: SYELTQPPSVSVSPGQTVSISCSGDRLGDKYACWYQQKPGQSPVLVIYQDSKRPSGIPERFSGSNSGNTATLTISGTQAMDEADYYCQAWDSSSYVFGTGTKVTVL
notes: huIgG1 F405L; also called C33F127; C33H92/C33L30

The binders below were run against T1, Cyno CD33 ECD-HSA (cynomolgus monkey) (assay: ProteOn SPR, mAb captured by anti-human Fc, 1:1 Langmuir fit).
T1 construct: Cyno CD33 extracellular domain fused to monomeric human serum albumin and a six-histidine tag; also called C33W1
Protocol: (§1) The panel of mAbs was then further characterized for full affinity analysis as well as epitope binning. The binding of anti-CD33 mAbs to recombinant human CD33 ECD-HSA (C33W2) and cyno CD33 ECD-HSA (C33W1) was measured by ProteOn SPR (Bio-Rad). […] Different mAbs were captured on the anti-human Fc IgG surface at 0.25 or 0.5 μg/ml (160-300 RU) in vertical ligand orientation, with the 6th ligand channel as no ligand surface control. Human and cyno CD33-HSA proteins at 0.3 μM concentration in 3-fold dilution series of 5 concentrations flew in as analyte to bind to captured mAbs in the horizontal orientation. A buffer sample was also injected in the 6th channel to monitor the dissociation of captured mAb and baseline stability. […] The raw biding data were processed by double referencing after subtracting the response data from: 1) the inter-spot to correct for the non-specific interactions between the Ag and the empty chip surface; 2) the buffer channel to correct for baseline drifting due to the dissociation of captured mAb surface over time. The processed data at all antigen concentrations for each mAb were globally fit to a 1:1 simple Langmuir binding model to extract estimates of the kinetic (kₒₙ, koff) and affinity (Kd) constants.

Binder	Kd	koff	kon
B1	2.21 nM	0.00162 s⁻¹	734000 M⁻¹ s⁻¹
B2	1.85 nM	0.00149 s⁻¹	805000 M⁻¹ s⁻¹
B3	2.69 nM	0.00339 s⁻¹	1.26e+06 M⁻¹ s⁻¹
B4	0.0366 nM	0.000158 s⁻¹	4.31e+06 M⁻¹ s⁻¹
B5	0.126 nM	0.000375 s⁻¹	2.97e+06 M⁻¹ s⁻¹
B6	0.217 nM	0.000266 s⁻¹	1.22e+06 M⁻¹ s⁻¹
B7	1.2 nM	0.000269 s⁻¹	225000 M⁻¹ s⁻¹

What follows are binders tested against Human CD33 ECD-HSA (human) in the same assay as above.
Protocol: as §1

Human CD33 ECD-HSA (human), sequence (chain, as listed by the source): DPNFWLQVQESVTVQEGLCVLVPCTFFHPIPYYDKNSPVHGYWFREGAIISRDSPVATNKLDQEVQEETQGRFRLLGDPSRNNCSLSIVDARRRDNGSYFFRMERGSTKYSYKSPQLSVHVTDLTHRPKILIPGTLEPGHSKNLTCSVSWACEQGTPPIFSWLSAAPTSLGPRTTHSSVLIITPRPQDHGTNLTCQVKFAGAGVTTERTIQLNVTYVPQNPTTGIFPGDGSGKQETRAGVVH

Binder	Kd	koff	kon
B1	21.4 nM	0.0105 s⁻¹	489000 M⁻¹ s⁻¹
B2	24.9 nM	0.0126 s⁻¹	507000 M⁻¹ s⁻¹
B3	14.8 nM	0.0152 s⁻¹	1.02e+06 M⁻¹ s⁻¹
B4	0.0112 nM	1.82e-05 s⁻¹	1.62e+06 M⁻¹ s⁻¹
B5	1.38 nM	0.00199 s⁻¹	1.45e+06 M⁻¹ s⁻¹
B6	52.9 nM	0.00203 s⁻¹	38500 M⁻¹ s⁻¹
B7	6.64 nM	0.00108 s⁻¹	162000 M⁻¹ s⁻¹
B8	9.53 nM	0.00712 s⁻¹	747000 M⁻¹ s⁻¹

These binders were tested against T2, Cyno CD33 full length, expressed on HEK293F cells (cynomolgus monkey) (assay: flow cytometry, HEK293F cells expressing cyno CD33).
T2 construct: HEK293F cells transduced with lentivirus containing full length cyno CD33 (Genbank XP_005590138.1); also called cyCD33
Protocol: (§2) OMNIRat antibodies identified via immunization, v-region cloned and subsequently expressed and purified were characterized further for binding to CD33 expressing cells and binding to recombinant antigens. The purified antibodies were assessed for binding to stably transfected HEK293F cells expressing human CD33 or cyno CD33 (generation described above) along with the parental HEK293F as negative control. Cells were harvested from tissue culture flasks using non-enzymatic dissociation buffer (Thermo Scientific). The flasks were rinsed twice with PBS and dissociation buffer was added to the flask, and the flask was incubated for 10 minutes at 37° C. until the cells became non-adherent. The cells were centrifuged at 300 g for 5 minutes and resuspended at 1.0×10⁶ cells/ml in staining buffer (Becton Dickinson; Franklin Lakes, NJ). 50,000 cells/well of each cell type was plated in 50 μl of staining buffer in round bottom plates (Becton Dickinson). […] 100 μl staining buffer was added to all wells of each plate, the plates were spun at 300 g for 5 min, the buffer was removed, 200 μl staining buffer was added to all wells of each plate, the plates were spun at 300 g for 5 min, and the buffer was removed. 50 μl of 2 μg/ml of Goat-anti-human Fc AF647 secondary antibody (Jackson Immunoresearch; West Grove, PA) was added to all wells of the plates, and the plates were incubated for 30 min at 4° C. 100 μl staining buffer was added to all wells of the plates, the plates were spun at 300 g for 5 min, and the buffer was removed. 200 μl running buffer (running buffer is Staining buffer, 1 mM EDTA, 0.1% Pluronic Acid) was added to all wells of the plates, the plates were spun at 300 g for 5 min, and the buffer was removed. 30 μl running buffer containing Sytox Green live/dead dye (ThermoFisher) was added to all wells with cells and the plates were read on an iQue IntelliCyt flow cytometer. Cells were gated on forward vs. side scatter to eliminate debris, then on singlets and then on live cells which excluded the Sytox stain. Antibody binding was assessed by the mean fluorescence intensity in the AF647 channel.

Binder	MFI at 0 nM mAb (background)	MFI at 0.6 nM mAb	MFI at 6 nM mAb	MFI at 60 nM mAb
B1	107 MFI	1600 MFI	8210 MFI	13600 MFI
B2	934 MFI	1920 MFI	5620 MFI	12700 MFI
B3	61.1 MFI	3230 MFI	10400 MFI	10700 MFI
B4	94 MFI	43400 MFI	47300 MFI	56500 MFI
B5	92 MFI	49700 MFI	49800 MFI	49800 MFI
B6	78 MFI	42200 MFI	49100 MFI	48900 MFI
B7	79.7 MFI	18000 MFI	46100 MFI	48000 MFI
B8	82.5 MFI	5840 MFI	13900 MFI	19700 MFI

What follows are binders tested against T1, Cyno CD33 ECD-HSA (assay: SPRi off-rate screen (IBIS MX96), mAb captured by anti-human Fc; column head prints Cyno CD33 binding KD).
Protocol: (§3) To begin assessing the biophysical binding properties of the purified mAbs an off-rate screen was performed. 76 OMNIRat anti-CD33 mAbs were tested for binding to recombinant human CD33 ECD-HSA (C33W2) and cyno CD33 ECD-HSA (C33W1) proteins (Janssen production) and the off-rate was measured by IBIS MX96 SPRi array platform (Carterra; Newton, PA). […] The sensor chip was transferred to the Continuous Flow Microspotter (CFM) unit to capture each anti-CD33 mAb at 10 μg/ml for 10 minutes. Binding was measured on IBIS SPRi by single cycle kinetics without regeneration. […] The raw binding data (.trix file format) were referenced and aligned using SprintX software (Wasatch, Ver 1.9.3.2), then exported (.ibmx file format) to Scrubber software (Ver. 2.0) for 1:1 binding kinetic analyses (Wasatch, version 2.0.0.33) to extract the koff results.

Binder	koff
B1	0.00183 s⁻¹
B2	0.00132 s⁻¹
B3	0.00274 s⁻¹
B4	0.00012 s⁻¹
B5	0.000148 s⁻¹
B6	9.33e-05 s⁻¹
B7	0.000106 s⁻¹
B8	0.00145 s⁻¹

Each binder was assayed against Human CD33 ECD-HSA (human) (assay: SPRi off-rate screen (IBIS MX96), mAb captured by anti-human Fc; column head prints KD).
Protocol: as §3

Binder	koff
B1	0.00671 s⁻¹
B2	0.01 s⁻¹
B3	0.0103 s⁻¹
B4	5.47e-05 s⁻¹
B5	0.000467 s⁻¹
B6	0.000859 s⁻¹
B7	0.000398 s⁻¹
B8	0.00874 s⁻¹

Each binder was assayed against T3, Human CD33 full length, expressed on HEK293F cells (human, UniProt P20138 18-364) (assay: flow cytometry, HEK293F cells expressing human CD33).
T3 construct: HEK293F cells transduced with lentivirus containing full length human CD33; also called huCD33
Protocol: as §2

T3 sequence (P20138 18-364 limits assumed): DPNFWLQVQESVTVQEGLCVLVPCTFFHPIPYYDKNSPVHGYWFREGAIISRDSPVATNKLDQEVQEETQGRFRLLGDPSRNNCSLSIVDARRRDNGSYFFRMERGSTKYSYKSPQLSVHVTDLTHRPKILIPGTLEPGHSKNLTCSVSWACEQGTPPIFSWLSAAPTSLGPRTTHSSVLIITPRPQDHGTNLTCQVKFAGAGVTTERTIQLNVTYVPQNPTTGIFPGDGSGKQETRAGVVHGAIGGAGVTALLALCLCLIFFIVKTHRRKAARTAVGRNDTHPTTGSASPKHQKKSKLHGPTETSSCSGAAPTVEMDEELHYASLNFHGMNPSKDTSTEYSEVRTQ

Binder	MFI at 0 nM mAb (background)	MFI at 0.6 nM mAb	MFI at 6 nM mAb	MFI at 60 nM mAb
B1	79.8 MFI	5310 MFI	38700 MFI	199000 MFI
B2	75 MFI	6090 MFI	37400 MFI	158000 MFI
B3	71 MFI	8860 MFI	88200 MFI	224000 MFI
B4	91.1 MFI	391000 MFI	429000 MFI	401000 MFI
B5	135 MFI	418000 MFI	448000 MFI	510000 MFI
B6	130 MFI	56600 MFI	313000 MFI	445000 MFI
B7	70.1 MFI	35500 MFI	205000 MFI	269000 MFI
B8	65 MFI	14300 MFI	84300 MFI	259000 MFI
